Patent US20210277125A1 (University of California, published 2021)

Tests used:
[1] = target: recombinant integrin αvβ3 (UniProt P06756 31-992; P05106 27-718); assay: ELISA: plate coated with antibody (2 µg/ml), recombinant integrin added, detected with 8B8-biotin and Streptavidin-HRP
Method: (§1) ELISA plates were coated with antibodies (2 μg/ml), washed, blocked with BSA, and then recombinant integrins were added at the indicated concentrations. After a brief incubation at RT, wells were washed and bound integrin detected with biotin conjugated anti-αv (8B8-biotin, 1 μg/ml) followed by Streptavidin-HRP. […] Antibodies were incubated at the indicated concentrations for 15 min at 4° C. and after washing detected with anti-mouse-PE.

[2] = target: recombinant integrin αvβ5 (UniProt P06756 31-992; P18084 24-719); assay: as above
Method: as §1

[3] = target: T1, recombinant integrin αvβ6 (UniProt P06756 31-992; P18564 22-707, limits assumed); assay: as above
Method: as §1

[4] = target: recombinant integrin αvβ1 (UniProt P06756 31-992; P05556 21-728); assay: as above
Method: as §1

[5] = target: T2, integrin αvβ8 on human ovarian carcinoma line OVCAR3 (human, UniProt P06756 31-1048; P26012 43-769); assay: flow cytometry on OVCAR3 cells, 15 min at 4 °C, detection with anti-mouse-PE, MFI against antibody concentration, KaleidaGraph fit
T2 construct: whole, on cells; also called OVCAR3 cells
Method: as §1

[6] = target: T2, integrin αvβ8 on human ovarian …; assay: competition flow cytometry on OVCAR3 cells: fixed ADWA11 2.4 (chimeric, murine IgG2a CH2/CH3) with titrated fully human C6D4 F12, 15 min at 4 °C, ADWA11 2.4 detected with anti-mouse (H+L) PE
Method: (§2) All antibodies were produced in CHO cells. […] Primary […] were incubated at 4° C. for 15 min.

[7] = target: T3, recombinant αvβ8 ectodomain (UniProt P06756 31-992; P26012 43-684, limits assumed); assay: sandwich ELISA: antibody coated at 2 µg/ml, recombinant integrin titrated, bound integrin detected with anti-αv 8B8-biotin and streptavidin-HRP
T3 construct: extracellular domain; the ELISA and the reporter assays say only 'recombinant αvβ8'; also called recombinant integrin αvβ8; immobilized αvβ8
Method: ELISA plates were coated with antibodies (2 μg/ml), washed, blocked with BSA, and then recombinant integrins were added at the indicated concentrations. After a brief incubation at RT, wells were washed and bound integrin detected with biotin conjugated anti-αv (8B8-biotin, 1 μg/ml) followed by Streptavidin-HRP.

[8] = target: T3, recombinant αvβ8 ectodomain; assay: kinetic exclusion assay (KinExA)
Method: Affinity for the antibodies described in the Examples was determined using a kinetic exclusion assay format. KinExA (https://www.sapidyne.com). The affinity was calculated as follows: […]

[9] = target: T3, recombinant αvβ8 ectodomain; assay: cell-based or functional assay
[10] = target: T3, recombinant αvβ8 ectodomain; assay: cell-based or functional assay; remark: listed apart in the source
[11] = target: T1, recombinant integrin αvβ6; assay: ELISA on coated integrin (1 µg/ml), antibody binding read as A450; antibody concentration not given
[12] = target: T2, integrin αvβ8 on human ovarian …; assay: flow cytometry on OVCAR3 cells, 15 min at 4 °C, detection with anti-mouse (H+L)-PE, MFI against nM antibody
Method: as §2

T3 sequence (P06756 31-992 limits assumed, chain 1 of 2): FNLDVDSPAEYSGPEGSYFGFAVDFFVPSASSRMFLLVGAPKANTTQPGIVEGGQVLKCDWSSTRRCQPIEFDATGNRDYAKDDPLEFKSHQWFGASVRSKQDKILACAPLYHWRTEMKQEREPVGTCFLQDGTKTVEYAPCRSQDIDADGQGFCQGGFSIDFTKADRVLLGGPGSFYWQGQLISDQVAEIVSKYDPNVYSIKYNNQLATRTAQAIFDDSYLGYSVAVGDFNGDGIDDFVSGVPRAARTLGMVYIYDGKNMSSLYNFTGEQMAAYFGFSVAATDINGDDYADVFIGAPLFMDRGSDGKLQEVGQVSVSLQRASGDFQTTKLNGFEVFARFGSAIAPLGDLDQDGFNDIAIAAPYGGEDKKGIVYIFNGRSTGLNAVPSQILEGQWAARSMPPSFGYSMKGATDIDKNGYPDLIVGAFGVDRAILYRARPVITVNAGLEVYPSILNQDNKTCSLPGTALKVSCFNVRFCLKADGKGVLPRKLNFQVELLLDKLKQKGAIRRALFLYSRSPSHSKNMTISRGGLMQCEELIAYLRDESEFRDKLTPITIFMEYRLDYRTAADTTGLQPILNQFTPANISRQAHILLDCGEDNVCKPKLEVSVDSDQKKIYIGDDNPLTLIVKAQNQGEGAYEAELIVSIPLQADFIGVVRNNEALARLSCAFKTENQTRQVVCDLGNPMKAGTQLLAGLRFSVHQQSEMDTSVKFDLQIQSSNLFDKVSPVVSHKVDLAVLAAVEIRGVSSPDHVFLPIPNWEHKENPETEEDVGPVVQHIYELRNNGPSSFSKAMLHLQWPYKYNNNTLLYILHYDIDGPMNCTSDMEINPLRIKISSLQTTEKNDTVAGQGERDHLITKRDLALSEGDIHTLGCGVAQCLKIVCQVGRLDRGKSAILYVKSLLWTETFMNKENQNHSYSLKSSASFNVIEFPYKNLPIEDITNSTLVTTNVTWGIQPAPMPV
T3 sequence (P26012 43-684 limits assumed, chain 2 of 2): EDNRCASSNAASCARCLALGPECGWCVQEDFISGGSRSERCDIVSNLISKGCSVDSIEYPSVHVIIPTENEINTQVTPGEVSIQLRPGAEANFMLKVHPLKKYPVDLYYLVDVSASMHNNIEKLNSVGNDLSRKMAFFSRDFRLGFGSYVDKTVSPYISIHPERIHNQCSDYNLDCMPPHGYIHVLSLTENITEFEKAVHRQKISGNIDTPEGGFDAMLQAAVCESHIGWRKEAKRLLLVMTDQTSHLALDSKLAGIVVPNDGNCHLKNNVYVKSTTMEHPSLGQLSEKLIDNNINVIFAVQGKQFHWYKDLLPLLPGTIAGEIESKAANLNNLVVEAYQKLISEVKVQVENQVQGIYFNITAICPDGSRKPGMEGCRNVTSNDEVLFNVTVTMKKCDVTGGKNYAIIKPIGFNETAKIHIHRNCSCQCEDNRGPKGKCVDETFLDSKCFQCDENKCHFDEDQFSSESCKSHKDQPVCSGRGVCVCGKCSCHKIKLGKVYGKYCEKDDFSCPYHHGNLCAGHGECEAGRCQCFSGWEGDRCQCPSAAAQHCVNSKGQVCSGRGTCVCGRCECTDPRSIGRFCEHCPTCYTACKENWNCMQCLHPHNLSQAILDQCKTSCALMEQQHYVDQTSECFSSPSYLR
T1 sequence (P06756 31-992 limits assumed, chain 1 of 2): as the sequence (P06756 31-992 limits assumed, chain 1 of 2) above
T1 sequence (P18564 22-707 limits assumed, chain 2 of 2): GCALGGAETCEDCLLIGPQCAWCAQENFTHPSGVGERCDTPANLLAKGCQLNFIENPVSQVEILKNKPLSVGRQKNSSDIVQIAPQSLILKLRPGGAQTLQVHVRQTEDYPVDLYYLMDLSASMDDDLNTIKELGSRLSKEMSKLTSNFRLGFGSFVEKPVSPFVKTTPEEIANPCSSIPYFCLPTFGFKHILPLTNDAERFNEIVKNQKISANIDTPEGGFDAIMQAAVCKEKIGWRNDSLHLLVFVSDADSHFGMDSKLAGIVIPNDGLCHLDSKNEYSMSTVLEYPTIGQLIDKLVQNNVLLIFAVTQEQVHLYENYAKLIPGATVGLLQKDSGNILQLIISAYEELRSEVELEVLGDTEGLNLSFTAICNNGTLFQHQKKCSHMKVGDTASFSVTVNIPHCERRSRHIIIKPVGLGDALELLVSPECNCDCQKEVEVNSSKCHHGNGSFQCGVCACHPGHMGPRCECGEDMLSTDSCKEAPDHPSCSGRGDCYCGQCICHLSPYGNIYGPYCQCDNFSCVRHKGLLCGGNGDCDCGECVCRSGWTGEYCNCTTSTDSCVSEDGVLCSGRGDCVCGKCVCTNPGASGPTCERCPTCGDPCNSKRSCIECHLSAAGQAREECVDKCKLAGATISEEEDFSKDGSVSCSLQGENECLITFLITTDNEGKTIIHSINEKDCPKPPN
T2 sequence (P06756 31-1048, chain 1 of 2): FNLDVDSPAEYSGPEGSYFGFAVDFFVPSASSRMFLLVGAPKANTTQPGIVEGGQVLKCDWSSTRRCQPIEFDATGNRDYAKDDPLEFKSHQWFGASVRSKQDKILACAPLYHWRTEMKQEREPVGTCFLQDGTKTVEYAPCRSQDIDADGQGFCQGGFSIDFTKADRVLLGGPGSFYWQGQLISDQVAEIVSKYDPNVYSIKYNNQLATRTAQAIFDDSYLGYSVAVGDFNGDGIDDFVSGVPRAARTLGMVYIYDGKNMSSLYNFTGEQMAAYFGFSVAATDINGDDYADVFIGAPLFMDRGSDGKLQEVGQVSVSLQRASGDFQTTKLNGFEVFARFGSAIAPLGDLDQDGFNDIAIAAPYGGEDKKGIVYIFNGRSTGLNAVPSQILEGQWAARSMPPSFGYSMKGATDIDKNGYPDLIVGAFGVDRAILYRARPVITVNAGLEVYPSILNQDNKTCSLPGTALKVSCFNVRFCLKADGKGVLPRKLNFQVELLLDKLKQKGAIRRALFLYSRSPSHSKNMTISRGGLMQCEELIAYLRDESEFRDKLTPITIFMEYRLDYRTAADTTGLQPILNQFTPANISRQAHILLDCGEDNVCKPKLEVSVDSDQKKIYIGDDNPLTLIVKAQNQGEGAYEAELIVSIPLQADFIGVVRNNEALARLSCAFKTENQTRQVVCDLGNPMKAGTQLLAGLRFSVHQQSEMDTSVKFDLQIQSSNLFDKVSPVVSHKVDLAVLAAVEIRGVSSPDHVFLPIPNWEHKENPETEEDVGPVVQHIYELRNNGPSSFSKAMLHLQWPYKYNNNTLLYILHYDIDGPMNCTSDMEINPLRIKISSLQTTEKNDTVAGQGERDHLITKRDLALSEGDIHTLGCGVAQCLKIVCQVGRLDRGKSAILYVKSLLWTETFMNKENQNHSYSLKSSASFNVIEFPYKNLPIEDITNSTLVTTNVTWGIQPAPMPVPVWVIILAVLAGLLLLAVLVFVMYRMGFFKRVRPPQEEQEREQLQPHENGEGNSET
T2 sequence (P26012 43-769, chain 2 of 2): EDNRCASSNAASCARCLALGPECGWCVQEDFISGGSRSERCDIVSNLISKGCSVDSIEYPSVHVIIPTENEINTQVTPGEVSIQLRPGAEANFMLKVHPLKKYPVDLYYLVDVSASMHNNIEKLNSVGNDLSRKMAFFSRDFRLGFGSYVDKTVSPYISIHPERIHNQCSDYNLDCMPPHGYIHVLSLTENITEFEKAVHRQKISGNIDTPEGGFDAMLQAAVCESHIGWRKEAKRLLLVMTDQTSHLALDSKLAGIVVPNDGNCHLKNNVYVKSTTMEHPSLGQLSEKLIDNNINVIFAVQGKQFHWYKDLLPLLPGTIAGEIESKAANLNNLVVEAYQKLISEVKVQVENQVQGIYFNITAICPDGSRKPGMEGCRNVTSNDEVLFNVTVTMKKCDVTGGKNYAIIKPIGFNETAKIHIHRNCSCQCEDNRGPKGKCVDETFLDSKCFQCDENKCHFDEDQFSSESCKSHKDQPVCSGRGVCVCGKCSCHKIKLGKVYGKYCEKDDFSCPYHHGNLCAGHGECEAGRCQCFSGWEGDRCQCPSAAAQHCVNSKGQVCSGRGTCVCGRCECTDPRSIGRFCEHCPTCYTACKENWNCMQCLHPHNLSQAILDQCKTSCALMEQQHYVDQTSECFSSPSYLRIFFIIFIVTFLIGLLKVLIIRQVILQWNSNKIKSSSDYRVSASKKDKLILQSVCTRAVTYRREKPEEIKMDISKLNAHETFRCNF
recombinant integrin αvβ3, sequence (P06756 31-992 limits assumed, chain 1 of 2): as the sequence (P06756 31-992 limits assumed, chain 1 of 2) above
recombinant integrin αvβ3, sequence (P05106 27-718 limits assumed, chain 2 of 2): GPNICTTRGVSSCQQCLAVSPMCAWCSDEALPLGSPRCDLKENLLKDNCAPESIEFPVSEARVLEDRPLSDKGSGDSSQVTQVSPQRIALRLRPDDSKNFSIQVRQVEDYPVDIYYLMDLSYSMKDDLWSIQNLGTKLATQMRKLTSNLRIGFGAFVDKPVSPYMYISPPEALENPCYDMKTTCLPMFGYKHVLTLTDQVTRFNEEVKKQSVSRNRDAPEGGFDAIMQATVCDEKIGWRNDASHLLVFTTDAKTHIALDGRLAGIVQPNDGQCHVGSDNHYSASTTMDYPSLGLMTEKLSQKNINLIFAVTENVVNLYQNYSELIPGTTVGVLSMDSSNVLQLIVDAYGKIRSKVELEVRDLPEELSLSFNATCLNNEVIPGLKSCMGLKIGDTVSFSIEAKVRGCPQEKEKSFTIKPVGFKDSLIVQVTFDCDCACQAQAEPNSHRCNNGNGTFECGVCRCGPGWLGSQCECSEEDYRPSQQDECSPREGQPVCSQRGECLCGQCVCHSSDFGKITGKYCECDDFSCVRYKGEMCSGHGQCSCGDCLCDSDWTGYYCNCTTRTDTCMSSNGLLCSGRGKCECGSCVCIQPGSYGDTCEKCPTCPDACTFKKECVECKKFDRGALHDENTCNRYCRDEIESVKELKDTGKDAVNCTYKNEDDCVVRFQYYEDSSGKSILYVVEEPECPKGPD

B1: antibody with heavy chain with the C6 VH1 (D to K) mutation expressed with light chain D4 (antibody, V domains shown)
VH: QIQLVQSGAEVKKPGASVKISCKASGYTFTKYSMHWVRQAPGQGLEWVARINTETGEPTFADDFRGRFTVTLDTSTSTAYLEIRSLRSDDTAVYFCAIFYYGRDTWGQGTTLTVSS
VL: EIVMTQSPATLSVSPGERVTMSCKSSQSLLNSRSRKNYLAWYQQKPGQAPRLLIYWASTRESGVPARFSGSGSGTEFTLTISSVQSEDFAVYYCKQSYNLLSFGQGTVLEIKR
notes: Single mutant of HuC6D4
- binding result [1]: no binding
- binding result [2]: no binding
- binding result [3]: no binding
- binding result [4]: no binding
- Kd [5]: 2.5 nM

B2: fully human C6D4 F12 (version of huC6D4F12 where CH1-3 were all human) (antibody, V domains shown)
VH: QIQLVQSGAEVKKPGASVKISCKASGYTFTKYSMHWVRQAPGQGLEWVARINTETGEPTFADDFRGRFTVTLDTSTSTAYLEIRSLRSDDTAVYFCAIFYYGRDTWGQGTTLTVSS
VL: EIVMTQSPATLSVSPGERVTMSCKSSQSLLHSRSRKNYLAWYQQKPGQAPRLLIYWASTRESGVPARFSGSGSGTEFTLTISSVQSEDFAVYYCKQSYNLLSFGQGTVLEIKR
- IC50 (read off the curve) [6]: ~0.1 mg/L

B3: C6-TGFβ1RGD (antibody, V domains shown)
VH: QIQLVQSGAEVKKPGASVKISCKASGYTFTDYSMHWVRQAPGQGLEWVARINTETGEPTFADDFRGRFTVTLDTSTSTAYLEIRSLRSDDTAVYFCAIFYYGRDTWGQGTTLTVSS
VL: EIVMTQSPATLSVSPGERVTMSCKSSQSLLRRGDLATIHGNALAWYQQKPGQAPRLLIYWASTRESGVPARFSGSGSGTEFTLTISSVQSEDFAVYYCKQSYNLLSFGQGTVLEIKR
notes: also called C6-TGF-TGFβ1RGD
- binding result [7]: binds

B4: HuC6D4 (antibody, V domains shown)
VH: QIQLVQSGAEVKKPGASVKISCKASGYTFTDYSMHWVRQAPGQGLEWVARINTETGEPTFADDFRGRFTVTLDTSTSTAYLEIRSLRSDDTAVYFCAIFYYGRDTWGQGTTLTVSS
VL: EIVMTQSPATLSVSPGERVTMSCKSSQSLLNSRSRKNYLAWYQQKPGQAPRLLIYWASTRESGVPARFSGSGSGTEFTLTISSVQSEDFAVYYCKQSYNLLSFGQGTVLEIKR
notes: Whole antibody; also called Human C6D4; Humanized C6D4
- Kd [8]: 0.0821 nM
- Kd [5]: 4.9 nM

B5: antibody with light chain D4 VL1 (N to H) mutation expressed with heavy chain C6 (antibody, V domains shown)
VH: QIQLVQSGAEVKKPGASVKISCKASGYTFTDYSMHWVRQAPGQGLEWVARINTETGEPTFADDFRGRFTVTLDTSTSTAYLEIRSLRSDDTAVYFCAIFYYGRDTWGQGTTLTVSS
VL: EIVMTQSPATLSVSPGERVTMSCKSSQSLLHSRSRKNYLAWYQQKPGQAPRLLIYWASTRESGVPARFSGSGSGTEFTLTISSVQSEDFAVYYCKQSYNLLSFGQGTVLEIKR
notes: Single mutant of HuC6D4
- binding result [1]: no binding
- binding result [2]: no binding
- binding result [3]: no binding
- binding result [4]: no binding
- Kd [5]: 4.7 nM

B6: HuC6D4F12 (antibody, V domains shown)
VH: QIQLVQSGAEVKKPGASVKISCKASGYTFTKYSMHWVRQAPGQGLEWVARINTETGEPTFADDFRGRFTVTLDTSTSTAYLEIRSLRSDDTAVYFCAIFYYGRDTWGQGTTLTVSS
VL: EIVMTQSPATLSVSPGERVTMSCKSSQSLLHSRSRKNYLAWYQQKPGQAPRLLIYWASTRESGVPARFSGSGSGTEFTLTISSVQSEDFAVYYCKQSYNLLSFGQGTVLEIKR
notes: Whole antibody; also called HC6D4F12; HuC6D412
- inhibition of TGF-β activation (immobilized αvβ8 at 1 µg/ml and TGF-β1/GARP expressing TMLC reporter cells); fold against ADWA11 2.4 [9]: ~77 fold
- Kd [8]: 0.00236 nM
- IC50 of inhibition of TGF-β activation (TMLC reporter cells expressing TGF-β1/GARP on immobilized αvβ8) [10]: 0.75 mg/L
- Kd [5]: 3.1 nM
- binding result [11]: no binding
- Kd [12]: 1.4 nM

B7: ADWA11 2.4 (chimeric version: humanized variable domains and CH1, murine IgG2a CH2/CH3) (antibody, V domains shown)
VH: EVQLVESGGGLVQPGGSLRLSCAASGFNIKDYYMNWVRQAPGKGLEWVGWIDPDQGNTIYEPKFQGRFTISADTSKNSAYLQMNSLRAEDTAVYYCARRLLMDYWGQGTLVTVSS
VL: DIQMTQSPSSLSASVGDRVTITCRSTKSLSHFNGNTYLFWYQQKPGKAPKRLIYYMSSLASGVPSRFSGSGSGTDFTLTISSLQPEDFATYYCQQSLEYPFTFGGGTKVEIKR
- IC50 of inhibition of TGF-β activation (TMLC reporter cells expressing TGF-β1/GARP on immobilized αvβ8) [10]: 57.7 mg/L
- Kd [12]: 26.3 nM

B8: C6D4 IgG 2a (antibody, V domains shown)
VH: QIQLVQSGPELKKPGETVKISCKASGYTFTDYSMHWVKQAPGKGLKWVARINTETGEPTFADDFRGRFAVSLETSASTAYLQINNLKNEDTATYFCAIFYYGRDSWGQGTTLTVSS
VL: DIVMTQSPSSLAVSAGEKVTMSCKSSQSLLNSRTRKNYLAWYQQKPGQSPRLLIYWASTRESGVPDRFTGSGSGTDFTLTISSVQAEDLAVYYCKQSYNLLSFGAGTKLELKR
notes: IgG2a
- Kd [8]: 1.3 nM
